From US20230399641A1
Where two headings read alike, the source gives them in different places.

Key:
No hACE2 [1] = target: No hACE2
No hACE2 [2] = target: No hACE2; remark: listed apart in the source
No hACE2 [3] = target: No hACE2; remark: listed apart in the source

Question: How did the % of cells in the PE-positive (RBD-bound) gate (No hACE2 [1]) turn out when “receptor binding domain (RBD) of HCoV-NL63 spike (residues 481-616) (from UniProt Q6Q1S2 481-616) (ligand)” was run?
Answer: 0.37%

Question: Which % of cells in the PE-positive (RBD-bound) gate (No hACE2 [2]) does the source give for “receptor binding domain (RBD) of SARS-CoV spike (residues 306-527) (from UniProt P59594 306-527) (ligand)” here?
Answer: 0.24%

Question: For “receptor binding domain (RBD) of wildtype SARS-CoV-2 spike (residues 319-541) (from UniProt P0DTC2 319-541) (ligand)”, which % of cells in the PE-positive (RBD-bound) gate (No hACE2 [3]) is on record?
Answer: 0.17%
